The text below walks through data of patent publication US11807868.

Holding throughout (test): cell-based or functional assay
Assay [1] concerns the target SM 10-2 variant AAV capsid (Adeno-associated virus 2 (isolate Srivastava/1982) (AAV-2)) (UniProt P03135).
Assay [2] has as its target SM 100-10 variant AAV capsid (Adeno-associated virus 2 (isolate Srivastava/1982) (AAV-2)) (UniProt P03135).
The target of assay [3] is SM 10-8 variant AAV capsid (Adeno-associated virus 2 (isolate Srivastava/1982) (AAV-2)) (UniProt P03135).
In assay [4] the target is AAV2 capsid variant 1.45 (adeno-associated virus type 2 (AAV2)) (UniProt P03135).
The target of assay [5] is wild-type AAV1 capsid (adeno-associated virus type 1 (AAV1)).
Assay [6] addresses wild-type AAV2 capsid (adeno-associated virus type 2 (AAV2)) (UniProt P03135).
Assay [7] deals with AAV2 capsid variant γ4.3 (adeno-associated virus type 2 (AAV2)) (UniProt P03135).
Assay [8] addresses SM 100-3 variant AAV capsid (Adeno-associated virus 2 (isolate Srivastava/1982) (AAV-2)) (UniProt P03135).
Assay [9] concerns the target wild-type AAV8 capsid (adeno-associated virus type 8 (AAV8)).

Take “Gamimune N, 10% Human IVIG (Bayer, Elkhart Ind.)”: the Fold Resistance Relative to AAV2 in assay [1] was found to be 7.52 fold; in assay [2], 4.39 fold; in [3] it was 3.41 fold; in assay [5], 1.76 fold; in [6], 1 fold; in assay [8], 4.94 fold. In assay [9], the Fold Resistance Relative to AAV2 stood at 6.11 fold. Also, the Neutralizing IVIG concentration (IVIG required to reduce gene delivery efficiency to 50% of that in the absence of IVIG) in assay [1] was determined as 0.113 mg/mL; in assay [2] it was 0.066 mg/mL; in assay [3], 0.051 mg/mL; in assay [5] it was 0.026 mg/mL; in assay [6], 0.015 mg/mL; in [8], 0.074 mg/mL. The Neutralizing IVIG concentration (IVIG required to reduce gene delivery efficiency to 50% of that in the absence of IVIG) in assay [9] came to 0.092 mg/mL. The fold enhanced resistance to pooled human IVIg compared to wild-type AAV2 came to 1.23 fold in assay [4] and 3.1 fold in assay [7].
